In patent US20240158497A1 (published 2024):

T1: Macaca fascicularis GP130 extracellular domain expressed with a C-terminal myc-myc-hexahistidine tag (Macaca fascicularis, UniProt P40189 23-619 (human entry))
T1 construct: Monomeric reagent; also called mfGP130-mmH; mfGP130-MMH
T1 chain: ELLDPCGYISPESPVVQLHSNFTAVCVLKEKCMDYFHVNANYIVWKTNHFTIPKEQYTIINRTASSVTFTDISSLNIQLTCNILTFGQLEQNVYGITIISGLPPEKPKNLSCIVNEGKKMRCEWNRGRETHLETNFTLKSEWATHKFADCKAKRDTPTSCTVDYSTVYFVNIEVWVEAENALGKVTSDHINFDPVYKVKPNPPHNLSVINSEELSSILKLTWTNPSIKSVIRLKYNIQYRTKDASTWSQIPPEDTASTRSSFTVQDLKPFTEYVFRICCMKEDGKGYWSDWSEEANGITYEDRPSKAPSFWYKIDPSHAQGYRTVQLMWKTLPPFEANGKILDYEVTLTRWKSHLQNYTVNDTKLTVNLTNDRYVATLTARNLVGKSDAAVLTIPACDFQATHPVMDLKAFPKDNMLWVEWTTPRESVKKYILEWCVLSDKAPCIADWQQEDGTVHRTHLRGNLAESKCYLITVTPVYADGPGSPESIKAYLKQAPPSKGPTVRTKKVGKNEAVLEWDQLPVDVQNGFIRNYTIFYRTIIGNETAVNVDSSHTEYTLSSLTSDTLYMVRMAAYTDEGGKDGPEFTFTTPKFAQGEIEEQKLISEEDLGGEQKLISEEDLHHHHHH


Key:
[1] = molecular target: T1, Macaca fascicularis GP130 extracellular …; assay: SPR (Biacore 4000), mAb captured on anti-human Fc, 37 C
Procedure: (§1) Equilibrium dissociation constant (KD) for different GP130 reagents binding to purified anti-GP130 monoclonal antibodies were determined using a real-time surface plasmon resonance based Biacore 4000 biosensor. All binding studies were performed in 10 mM HEPES, 150 mM NaCl, 3 mM EDTA, and 0.05% v/v Surfactant Tween-20, pH 7.4 (HBS-ET) running buffer at 25° C. and 37° C. The Biacore sensor surface was first derivatized by amine coupling with a monoclonal mouse anti-human Fc antibody (GE, #BR-1008-39) to capture anti-GP130 monoclonal antibodies. […] Reagents tagged with “mmH” are monomeric, whereas reagents tagged with “mFc” are dimeric. Thus, for example, “hGP130-mmH” is also referred to as “monomeric human GP130,” and “hGP130-mFc” is also referred to as “dimeric human GP130.”
(§2) The association rate (k a) and dissociation rate (kd) were determined by fitting the real-time binding sensorgrams to a 1:1 binding model with mass transport limitation using Scrubber 2.0c curve-fitting software. Binding dissociation equilibrium constant (KD) and dissociative half-life (t ½) were calculated from the kinetic rates as: […]

[2] = molecular target: T2, human GP130 extracellular domain expressed with a C-terminal myc-myc-hexahistidine tag (human, UniProt P40189 23-619); assay: as above
T2 construct: Monomeric reagent; also called hGP130-mmH; hGP130-MMH
Procedure: as §1, §2

[3] = molecular target: T1, Macaca fascicularis GP130 extracellular …; assay: SPR (Biacore 4000), mAb captured on anti-human Fc, 25 C
Procedure: as §1, §2

Binder	100 nM Ag Bound [1] [RU]	Kd [1] [nM]	koff [1] [s⁻¹]	kon [1] [M⁻¹ s⁻¹]	t½ [1] [min]	100 nM Ag Bound [2] [RU]	Kd [2] [nM]	koff [2] [s⁻¹]	kon [2] [M⁻¹ s⁻¹]	t½ [2] [min]	100 nM Ag Bound [3] [RU]	Kd [3] [nM]	koff [3] [s⁻¹]	kon [3] [M⁻¹ s⁻¹]	t½ [3] [min]	binding result [3]
MAb16676 (antibody, V domains shown) VH: QVQLVQSGAEVMKPGASVKVSCRASGYTFSSYDINWVRQAPGQGLEWMGWISTATGNTNYPQKVQGRVTMTTDTSTNTAYMELRSLRSDDTAVYYCTREGNSKGWLDPWGQGTLVTVSS VL: not shown	48	7.12	0.00243	341000	5	52	6.01	0.00236	393000	5	49	2.2	0.000597	272000	19	–
MAb16637 (antibody, V domains shown) VH: QVQLVQSGAEVKKPGASVKVSCKASGYTFTSLGISWVRQAPGQGLEWMGWISAYSGNRDYAQKFQGRVTMTTDTSTSTAYMELRSLRSDDTAVYYCARSLRFDYWGQGTLVTVSS VL: not shown	104	14.8	0.00263	178000	4	110	17.3	0.00342	197000	3	87	15.9	0.00109	68300	11	–
MAb16662 (antibody, V domains shown) VH: EVQLVESGGGLVQPGGSLRLSCTASGFTFSNYAIFWVRQAPGKGLEYVSGISNNGVTKYYADSVRDRFTISRDNSRNTVSIQMDSLRTEDMAVYYCARENWGSDDGFDIWGQGTMVTVSS VL: not shown	14	167	0.0592	355000	0.2	17	134	0.0585	436000	0.2	15	184	0.038	207000	0.3	–
MAb16669 (antibody, V domains shown) VH: EVQLVESGGGLVQPGGSLRLSCAASGFTFSSYAMNWVRQAPGKGLEWVSAISGSGDSTYYTDSVKGRFTISRDNSKNTLYLQMNTLRAEDTAVYYCAKEEIVMLVGATPGWFDPWGQGTLVTVSS VL: not shown	8	–	–	–	–	25	19.3	0.00106	55100	11	3	–	–	–	–	no binding (tested: 100 nM)
MAb16673 (antibody, V domains shown) VH: EVQLVQSGAEVKKPGESLKISCKGSGYSFTSYWIDWVRQMPGKGLEWMGIIYPDDSDTRYSPSFQGQVTMSVDKSISTAYLQWSSLKASDTAIYYCARHERGIVEAGTDYYYYYGMDVWGQGTTVTVSS VL: not shown	64	34.1	0.0211	617000	0.5	40	75.4	0.0404	536000	0.3	86	22.2	0.00693	312000	1.7	–
MAb16665 (antibody, V domains shown) VH: QVQLVESGGGVVQPGRSLRLACAASGFTFRSYGMHWVRQAPGKGLEWVAVIWYDGSNKYYTDSVKGRFTISRDNSKNTLYLQMNSLRAEDTAMYYCAIDKWATVTTYLFDYWGQGTLVTVSS VL: not shown	14	205	0.101	492000	0.1	19	164	0.0693	423000	0.2	16	233	0.0505	217000	0.2	–
MAb16659 (antibody, V domains shown) VH: QVQLVQSGPEVKKPGSSVKVSCKASGGTIDRNEITWVRQAPGQGLEWMGVIIPILGEAHYERKFQGRLTITMDESTSTAYMELSNLRSEDTAVYYCARERAARGYLDYWGQGTLVTVSS VL: not shown	78	2.34	0.00174	747000	7	82	1.84	0.00171	928000	7	74	0.812	0.00044	542000	26	–
MAb16636 (antibody, V domains shown) VH: QLQLQESGPGLVKPSETLSLICTVSGGSISSNNYYWGWIRQPPGKGLEWIGNLYGSGSTYYNPSLKSRVTISVDTSKNQFSLKLSFVTAADTAVYHCARWDTNGGAFDIWGQGTMVTVSS VL: not shown	25	239	0.00945	39500	1.2	50	71.6	0.00441	61600	2.6	23	107	0.00216	20100	5	–
MAb16666 (antibody, V domains shown) VH: EVQLVESGGGLVQSGGSLRLSCAASGFTFSRYEMNWVRQAPGKGLEWVAYISNTGTTRDYSDSVKGRFTISRDNAKNSLYLQMSSLRVEDTAVYYCVREKFSGTSDWFDPWGQGTLVTVSS VL: not shown	90	24.7	0.0131	528000	0.9	104	17.1	0.0101	588000	1.1	123	18.3	0.0053	290000	2.2	–
MAb16656 (antibody, V domains shown) VH: EVQLVESGGGLVQPGRSLRLSCAASGFTLDDFAMHWVRQAPGKGLEWVSGISWNSGNIGYADSVKGRFTISRDNARNSLYLQMNSLRAEDTALYYCTSGYYLYYAMDVWGQGTTVTVSS VL: not shown	47	61.3	0.00411	67000	2.8	50	60.7	0.00426	70100	2.7	42	19	0.000846	44400	14	–
MAb16664 (antibody, V domains shown) VH: QVQLVQSGTEVKKPGSSVKVSCKASGGTFSTYPINWVRQAPGQGLEWMGGIIPIFGTASYAQKFQGRVAITTDESTSTAYMELNSLRSEDTAVYYCARERPNWGSNDYWGQGTLVTVSS VL: not shown	16	11.6	0.00788	680000	1.5	16	14.2	0.00826	580000	1.4	13	3.21	0.00175	543000	7	–
